Results taken from the nanobody polyreactivity screen of Harvey et al. (2022).

Assay: yeast display, Sf9 membrane polyspecificity reagent, FACS + sequencing; frameworks hold sequencing errors
Summary of the method: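 In a synthetic yeast display library (Saccharomyces cerevisiae BJ5465), nanobody expression was induced with galactose for 36–48 hours. FACS gates were set low and high (top ~1%) using anti-HA fluorescence for expression and streptavidin fluorescence for binding of the Sf9 membrane reagent. Each polyreactivity label is drawn from the gate of origin.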

Row | Sequence | polyreactivity (PSR sort gate)
1 | QVQLVESGGGLVQAGGSLRLSCAASGRIFGYYDMGWYRQAPGKERELVAAITWSGGSTYYADSVKGRFTISRDNAKNTVYLQMNSLKPEDTAVYYCAAEKRYRKAFDYWGQGTQVTVSS | high polyreactivity
2 | QVQLVESGGGLVQAGGSLRLSCAASGSNFPWNAKGWYRQAPGKERELVAGINESGGSTYYADSVKGRFTISRDYAKNTVYLQMNSLKPEDTAVYYCAADGYPSVGDDYWGQGTQVTVSS | low polyreactivity
3 | QVQLVESGGGLVQAGGSLRLSCASSGSIFLSYTMGWYRKAPGKERELVAAISKRGGSSYYADSVKGRFTISRDNAKNTVYFQMNTLIPEDTAVYYFNADVRYRRRISVTNVYDYWGQGTQVTVSS | high polyreactivity
4 | QVQLVESGGGLVQAGGSLRLSCAASGSIFYSYAMGWDRQAPGKERELVAAISRIGGTTYYADSVKGRFTISRDNAKNTVYLQMNSLKPEDTAVYYCAAGPLLPRYSQYGYWGQGTQVTVSS | low polyreactivity
5 | QVQLVESGGGLVQAGGSLRLSCAASGNTFGENAMGWYRQAPWKERELVAAISNGGTTNYADSVKGRFTISRDNAKNTVYLQMNSLKPEDTAVYYSNAKFGISQPGHSGLLKMDYWGQGTQVTVSS | low polyreactivity
6 | QVQLVESGGGLVQGGGSLRLSCAASGSTFAVYDMGWYRPAPGKERELVAAITVSGSSTHYADSVKGRFTISRDNAKNTVYLQMNSLKPEDTAVYYWGQGTQVTVSS | low polyreactivity
7 | HVQLVESAGGLVQAGGSLRLSCAASGFIFGYYAMGWYRQAPGKERELVAAINYNDDSTYYADSVKGRFTISRDNAKNTVYLQMNSLKPEDTAVYYCAVRRWDAGDYWGQGTQVTVSS | low polyreactivity
8 | QVQLVESGGGLVQAGGSLRLSCAASGNIFVAYAMGWYRQAPGKERELVAVISNGGRTYYADSVKGRFTISRDKAKNNVYLQMNSLKPADTAVSYCATVAHASYGWHNYWGQGTQVTVSS | high polyreactivity
9 | QVQLVESGGGLVQAGGSLRLSCAASGSTFGANAMGWYRQAPGKERELVAVITWNDGSTYYADSVKGRFTISRDNAKNTVYLQMNSLKPEDTAVYYCAAEYADSWSAFDWNYYYWVQGTQVTVSS | high polyreactivity
10 | QVQLVESGGGLVQAGGSLRLSCAASGRIFSPYAMGWYRQAPGKERELVAAITSSGGSTYYADSVKGRFTISRDNAKNTVYLQMNSLKPEDTAVYYCNARRGRYTPSVNYWGQGTQVTVSS | high polyreactivity
11 | QVQLQESGGGLVQAGVSLRLSCAASGTIFTARFMAWYRQAPGKERELVATITDGGNTNHADSVKGRFSISRDNAKNTVSLQMNSLKPEYAAVYYCAAGEVDNDTLLFWGQGSQVTVSS | low polyreactivity
12 | QVQLVESGGGLVQAGGSLRLSCAASGSTFYYYTMGWYRQAPGKERELVAVISRDGRTNYADSVKGRFTISRDNAKNTVYVQMNSLKPEDTAVYYCNADYYWNGVYHYDYWGQGTQVTVSS | low polyreactivity
13 | QFQLVESGGGILQAGGSLRLSCAASGFIFSSYAMGWYRQAPGKERELVAAISKRGGSTYYADSVKGRFTISRDNAKNTVYLQMNSLKPEDTAVYYCARGSYPYRSFWLTSDYWGQVTQVTVSS | high polyreactivity
14 | EVQLVESGGGLVQPGGSLRLSCAASGYIYSRYRMGWYRQAPGKGREFVAAISGGSSTNYADSVKGRFTISRDNSKNTVYLQMNSLRAEDTAVYYCAAYQIDSDPRVYWGQGTQVTVSS | low polyreactivity
15 | QVQLVESGGGLVQAGGSLRLSCAASGRIFYGYAMGWYRQAPGKERELVAAIDWSGGSTYADSVKGRFTISRDNAKNTVYLQMNSLKPEDTAVYYCATDWVTSQQPYYWIYEYWGQGTQVTVSS | low polyreactivity
16 | QVQLVESGGGLVQAGGSLRLSCAASGSTFGRNAMGWYRQAPGKERELVASISRRGGSTYYADSVKGRFTISRDNAKNTVYLQMNSLKPEDTAVYYCNARYYFSDYGYWGQGTQVTVSS | high polyreactivity
17 | QVQLVESGGGLVQAGGSLRLSCAASGSTFYKNAMGWYRQAPGKERELVARISGRGGSTYYADSVKCRFTISRDNAKNSVYLQMNSLKPEDTAVYYCNAVKYSSSAALYDYWGQGTQVTVSS | high polyreactivity
18 | QVQLVESGGGLVQAGGSLRLSCAASGYIFTRNAMGWYRQAPGKERELVATISSRGGRTYYADSVKGRFTISRDNAKNTVYLQMNSLKPEDTAVYYCAATPWYRTRTYDYWGQGTQVTVSS | high polyreactivity
19 | QVQLVESGGGLFQAGGSLRLSCAASRLIFPLYAMGWYRKAPWKERELVAANTRGGSTYYADSVKGRLTISSDNANNTVYLQINSLKAEDTAVYDCNDELPVHWSWYDYWGQGTQVTVSS | low polyreactivity
20 | QVQLVESGGGLVQAGGSLRLSCAASGLTFVYYAMGWYRQAPGKERELVAVISSSGGSTYYADSVKGRFTISRDNAKNTVYLQMNSLKPEDTAVYYCAAPRQVYYQTDNDYWGQGTLVTVSS | high polyreactivity
21 | QVQLVESGGGLVQAGGSLRLSCAASGRIFKPYVMGWYRQAPGKERELVAAITRGGSTNYADSVKGRFTISRDNAKNTVYLQMNSLKPEDTAVYDCAVYYYGTWGWDDYWGQGTQVTVSS | high polyreactivity

Row | Sequence | polyreactivity (PSR sort gate)
22 | QVQLVESGGGLVQAGGSLRLSCAASGRIFGWYAKGWYRQAPGKETELVAAISPGGSTKYADSVKGRFTISRDYAKNTVYLQMNSLKPEDTADYYFAADLFNYTTGRDYWGQGTQVTVSS | low polyreactivity
23 | QVQLVESGAGLVQAGGSLRLSCAASGRTFHRYAMGWYRQAPGKERELVATINRNGGSTYYADSVKGRFTISRDNAKNTVYLQMNSLKPDDTAVYYCNKRVYTGYKYSESFDRYYYWGQGTQVTVSS | high polyreactivity
24 | QVQLVESGGGLVQAGGSLRLSCAASGSIFEYYAMGWYRQAPGKERELVAAITWSGGSTYYADSVKGRFTISRDNAKNTVYLQMNSLKPEDTAVYYCAKGYYVYGIFHRFGYYWGQGTQVTVSS | high polyreactivity
25 | QVQLVETGGGLVQAGGTLRLAVLPPDLPSTLNDMGWYRQATGKERELVAAITRGGSTNYADSVKGRFTISRDNAKNTVYLLMNSLKPEDTAVYYCAARSAGWRDGGDYWGQGTQVTVSS | low polyreactivity
26 | QVQLVESGGGLVQAGGSLRLSCAASGSISSKNAMGWYRQPPGKERQFDAVISGTGGSTYYADSVKGRFTISRDNAKNTVYLQMNSLKPEDTAVYYCAAAASSIVSYGYTWTYGYWGLGTQVTVSS | low polyreactivity
27 | QVHLVESGGGLVQAGGSLRLSCAASGSIFQPYAMGWYRQAPGTERELVAAISSSGGSTTYADSVKGRFTISRDKAKNTVYLQMNSLKPEDTAVYYCAAESADDMGYWGQGTQVTVSS | low polyreactivity
28 | QVHLVESGGGLVQAGGSLRLSCAASGSTFTRNVMGWYRQAPGKERELVASISRSGGRTYYADSVKGRFTISRDNAKNTVYLQMNSLKPEDTAVYYCAAKSFYYLDPYDYWGQGTQVTVSS | high polyreactivity
29 | QVQLVESGGGLVQAGGSLRLSCAASGFTFAYYAMGWYRQAPGKETELVAAITSGGRTNYADSVKGRFTISRDNAKNTVYLQMNSVKPEDTAVDYCAKYRRGGSRHYSVFNHDYWGQGTQVTVSS | high polyreactivity
30 | QVQLVESGGGLVQSRGSLSLICAASGRTYRTYTMGWYRQSPGKERQFVAAIDRTGGSTYYADSVKGRFTISRDNAKNTVYLQMNSLKPEDTAVYYCAATASYIYWGKIYGYDYWGQGTQVTVSS | high polyreactivity
31 | QVQLVESGGGLVQAGGSLRLSCAASGSTFSFYAMGWYRQAPGKERELVAAIRFSGTSTYADSVKGRFTISRDNAKNTVYLQMNSLKPEDTAVYYCAARRAVFYSQRYYRYDYWGQGTQVTVSS | high polyreactivity
32 | QGQLVESGGGLVQAGGSLRFSCAASGRIFSVYDMGWYRQAPGTERELVAAIDTSDGSTNYADSVKGRFTISRDNAKNSVYLQMNSLKPEDTAVYYCNATDSYVPFDYWGQGTQVTVSS | low polyreactivity
33 | QVQLVDSGGGLVQAGGSLRLSCAGSGLTFRFYAMVWYRQAPGKEREFVAAISSSGTTTYYADSVKGRFTISRDNAKNTVYLQMNSLKPEDTADFYCNKEYTTYGYDLEYDFWGQGTQVTVSS | low polyreactivity
34 | QVQLVESGGGLVQAGGSLRLSCAASGIIFISNAMGWSRQAPGTERELVADITSGGGSTYYADSVKGRFTISRDNAKNTVDLQMNSLKPDDTAVYYGAKRATGAYVFFFDSWGQGTQVTVSS | low polyreactivity
35 | QVQLVESGGGLVQAGGSLRLSCAASGRIFYGYAMGWYRQAPGKERELVAAIRWYVGNTYYADSVKGRFTISRDNAKNTVYLQMNSLKPEDTAVYYCNARTEYASSRYYYWGQGTQVTVSS | high polyreactivity
36 | QVHLVESGGGLVQAGRSLPLSCAASGRIFIYNAMGWYRQAPGKERELVAAINRSGVSTHYADSVKGRFTISRDNAKNTVYLQMNSLKPEDTAVYYCARTVYGARSYDYWGQGTQVTVSS | low polyreactivity
37 | QVQLVESGGGLVQAGCSLRLSCAASGRIFDYYAMGWNRQAPGKERELVAAISYSGGSTHYADSVKGRFTISRDNAKNSVYLQMISLKPEDTAVYYCAGWAWSGVEYDYWGQGSQVTVSS | low polyreactivity
38 | QVQLVESGGGLVQAGGSLRLSCAASGRIFVQNAMGWYRQAPGKEREVVAAISSRGTSTYYADSVKGRFTISRDNAKNTVYLQMNSLKPEDTALYYCAAREWRTFDYWGQGTQVTVSS | low polyreactivity
39 | QVQLVESGGGLVQAGGSLRLSCAASGFTFPVYGMGWYRQAPGKERELVAAISSRGGNTYYADSVKGRFTISRDNAKNTVYLQMNSLKPEDTAVYYCAAGGITYTGDDYWGQGTQVTVSS | high polyreactivity
40 | QVQLVESGGGLVQAGGSLRLSCAASGINYTFYAMGWYRQAPGKERELVAAISYSSGSTYADSVKGRFTISRDNAKNTVYLQMNSLKPEDTAVYYCAVDLFPGHSYTYDYWGQGTQVTVSS | low polyreactivity
41 | QVQLVESGGGLVQAGGSLRLSCAASGSTFTGYDMGWYRQAPGKERELVAAISISGGRTFYADSVKGRFTISRDNAKNTVYLQMNSLKPEDTAVYYCAAYQRGSKYSFDYWGQGTQVTVSS | high polyreactivity
